Measured values as given in US20050221443A1 (published 2005).

Target: T1, RANK-L (UniProt O14788 140-317, limits assumed)
T1 sequence (looked up): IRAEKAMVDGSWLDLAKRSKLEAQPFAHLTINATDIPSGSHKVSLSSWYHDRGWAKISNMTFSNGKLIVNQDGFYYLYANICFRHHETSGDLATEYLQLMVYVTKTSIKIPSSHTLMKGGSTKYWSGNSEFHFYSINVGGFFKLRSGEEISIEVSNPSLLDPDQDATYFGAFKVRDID
Assay: polarization anisotropy at steady state, 1 ug/mL Alexa568 TNF with increasing concentrations of RANK-L, 1 hour at 37 C
Procedure: This assay necessitated a fluorescently labeled TNF trimer that at limiting concentrations could be used as a tracer to monitor exchange. We generated a TNF variant (R31C/C69V/C101A) and specifically labeled it with Alexa568 maleimide at the R31 position. Polarization anisotropy measures heterotrimer formation at steady-state. We mixed 1 ug/mL Alexa568 TNF either alone (open circles) or with increasing concentrations of RANK-L (open squares), PEG20k-A145R/Y87H TNF, PEG5k-A145R/Y87H, or A145R/Y87H in PBS/0.02% igepal for 1 hour at 37 C. These reactions were placed into the spectroscopic instrument-and the steady-state anisotropy was measured. […] (FIG. 8B) Addition of surfactant excipients catalyzes the exchange between TNF homotrimers. We mixed together 1 ug/mL Alexa568 TNF alone (open circles) or with 100 ug/mL PEG-5k A145R/I97T TNF (closed circles) in a 96-well assay format and began anisotropy measurements. After ˜2000 seconds the instrument was paused and 0.5% polysorbate-20 or polysorbate-80 were added and the measurement was resumed.

binding result: no binding
B1: Alexa568 TNF (TNF variant R31C/C69V/C101A labeled with Alexa568 maleimide) (ligand, human, UniProt P01375 77-233, looked up)
chain: VRSSSRTPSDKPVAHVVANPQAEGQLQWLNCRANALLANGVELRDNQLVVPSEGLYLIYSQVLFKGQGVPSTHVLLTHTISRIAVSYQTKVNLLSAIKSPAQRETPEGAEAKPWYEPIYLGGVFQLEKGDRLSAEINRPDYLDFAESGQVYFGIIAL
modifications: Alexa568 maleimide at the R31 position (Cys of R31C)
notes: extracellular domain; Fluorescent tracer homotrimer
